Experimental data published in patent US20150203577A1 (Chugai, published 2015).
Positions count from the first letter of the chain named.

T1: mouse FcγRII (mouse, UniProt P08101 30-210)
T1 construct: also called mFcγRII; mFcgRII
T1 sequence: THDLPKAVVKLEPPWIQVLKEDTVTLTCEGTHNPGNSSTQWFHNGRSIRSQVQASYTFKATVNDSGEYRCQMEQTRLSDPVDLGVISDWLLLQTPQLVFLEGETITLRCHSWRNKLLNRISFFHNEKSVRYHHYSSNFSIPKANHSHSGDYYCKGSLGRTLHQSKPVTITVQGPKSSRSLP

T2: mouse FcγRIII (mouse, UniProt P08508 31-215)
T2 construct: also called mFcγRIII; mFcgRIII
T2 chain: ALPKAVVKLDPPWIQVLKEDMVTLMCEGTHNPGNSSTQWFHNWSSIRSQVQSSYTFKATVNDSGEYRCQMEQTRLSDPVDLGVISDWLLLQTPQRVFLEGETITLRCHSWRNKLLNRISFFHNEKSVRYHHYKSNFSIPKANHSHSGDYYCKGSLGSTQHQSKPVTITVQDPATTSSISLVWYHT

T3: mouse FcγRII extracellular domain, C-terminal His tag (mouse, UniProt P08101 30-210)
T3 construct: Whole entry named; also called mFcγRII; mFcgRII
T3 sequence: T1 sequence

T4: mouse FcγRIII extracellular domain, C-terminal His tag (mouse, UniProt P08508 31-215)
T4 construct: Whole entry named; also called mFcγRIII; mFcgRIII
T4 chain: T2 chain

B1: MB304 (antibody, mouse IgG1, kappa)
heavy: QVQLQESGPGLVKPSETLSLTCAVSGHSISHDHAWSWVRQPPGEGLEWIGFISYSGITNYNPSLQGRVTISRDNSKNTLYLQMNSLRAEDTAVYYCARSLARTTAMDYWGEGTLVTVSSAKTTPPSVYPLAPGSAAQTNSMVTLGCLVKGYFPEPVTVTWNSGSLSSGVHTFPAVLQSDLYTLSSSVTVPSSTWPSETVTCNVAHPASSTKVDKKIVPRDCGCKPCICEVPEVSDHFIFPPKPKDVLTITLTPKVTCVVVDISKDDPEVQFSWFVDDVEVHTAQTQPREEQFNSTFRSVSELPIMHQDWLNGKEFKCRVNSAAFPAPIEKTISKTKGRPKAPQVYTIPPPKEQMAKDKVSLTCMITDFFPEDITVEWQWNGQPAENYKNTQPIMDTDGSYFVYSKLNVQKSNWEAGNTFTCSVLHEGLHNHHTEKSLSHSPGK
light: not shown
notes: copies: 2 + 2
B2: MB312 (antibody, mouse IgG1, kappa)
heavy: B1 heavy with E229T, V230D
light: not shown
notes: copies: 2 + 2
B3: MB314 (antibody, mouse IgG1, kappa)
heavy: B1 heavy with E229T, P231E, H236E
light: not shown
notes: copies: 2 + 2
B4: MB310 (antibody, mouse IgG1, kappa)
heavy: B1 heavy with E229T, V230D, S234E, H236V
light: not shown
notes: copies: 2 + 2
B5: MB321 (antibody, mouse IgG1, kappa)
heavy: B1 heavy with V230A, P231E, S234E
light: not shown
notes: copies: 2 + 2
B6: MB308 (antibody, mouse IgG1, kappa)
heavy: B1 heavy with E229T, V230A
light: not shown
notes: copies: 2 + 2
B7: MB311 (antibody, mouse IgG1, kappa)
heavy: B1 heavy with E229T, V230D, H236E
light: not shown
notes: copies: 2 + 2
B8: MB307 (antibody)
heavy: B1 heavy with E229T, V230A, H236E
light: not shown
notes: copies: 2 + 2
B9: MB317 (antibody, mouse IgG1, kappa)
heavy: B1 heavy with E229T, S234E
light: not shown
notes: copies: 2 + 2
B10: MB322 (antibody, mouse IgG1, kappa)
heavy: B1 heavy with V230D, P231E, S234E, H236V
light: not shown
notes: copies: 2 + 2
B11: MB316 (antibody, mouse IgG1, kappa)
heavy: B1 heavy with E229T, S234E, H236E
light: not shown
notes: copies: 2 + 2
B12: MB326 (antibody, mouse IgG1, kappa)
heavy: B1 heavy with P231E, S234E
light: not shown
notes: copies: 2 + 2
B13: MB315 (antibody, mouse IgG1, kappa)
heavy: B1 heavy with E229T, P231E
light: not shown
notes: copies: 2 + 2
B14: MB324 (antibody, mouse IgG1, kappa)
heavy: B1 heavy with V230D, P231E, S234E
light: not shown
notes: copies: 2 + 2
B15: MB323 (antibody, mouse IgG1, kappa)
heavy: B1 heavy with V230D, P231E, S234E, H236E
light: not shown
notes: copies: 2 + 2
B16: MB320 (antibody, mouse IgG1, kappa)
heavy: B1 heavy with V230A, P231E, S234E, H236E
light: not shown
notes: copies: 2 + 2
B17: MB313 (antibody, mouse IgG1, kappa)
heavy: B1 heavy with E229T, P231E, S234E, H236V
light: not shown
notes: copies: 2 + 2
B18: MB306 (antibody, mouse IgG1, kappa)
heavy: B1 heavy with E229T, V230A, S234E, H236V
light: not shown
notes: copies: 2 + 2
B19: MB309 (antibody, mouse IgG1, kappa)
heavy: B1 heavy with E229T, V230D, P231E, H236V
light: not shown
notes: copies: 2 + 2
B20: MB318 (antibody, mouse IgG1, kappa)
heavy: B1 heavy with P231E, S234E, H236V
light: not shown
notes: copies: 2 + 2
B21: MB325 (antibody, mouse IgG1, kappa)
heavy: B1 heavy with P231E, S234E, H236E
light: not shown
notes: copies: 2 + 2
B22: MB319 (antibody, mouse IgG1, kappa)
heavy: B1 heavy with V230A, P231E, S234E, H236V
light: not shown
notes: copies: 2 + 2
B23: H237-MB561/MRAL-k0 (antibody, mouse IgG1, kappa)
heavy: B1 heavy with E229T, V233E, S234E, D235S, H236V
light: not shown
notes: copies: 2 + 2
B24: H237-MB562/MRAL-k0 (antibody, mouse IgG1, kappa)
heavy: B1 heavy with E229T, S234E, D235F, H236V
light: not shown
notes: copies: 2 + 2
B25: H237-MB364/MRAL-k0 (antibody)
heavy: B1 heavy with V230A, P231K, S234E, H236V
light: not shown
notes: copies: 2 + 2

Each binder was assayed against T1, mouse FcγRII (assay: SPR Biacore T200, KD ratio).
Source text: (§1) The antibody H chain variable region used was the variable region H237 (SEQ ID NO: 1) of the H chain VH3-IgG1 of the anti-IL-6 receptor antibody Fv4-IgG1 described in WO2009/125825. The antibody L chain commonly used was the L chain MRAL-k0 (SEQ ID NO: 2) of the anti-IL-6 receptor antibody tocilizumab. […] The resulting variant group was designated as MB110 variants. These variants were expressed and purified by the method of Reference Example 1 and evaluated for their binding to mFcγRII and mFcγRIII by the method of Reference Example 2 using Biacore T200.
(§2) Each altered antibody was analyzed for its interaction with each Fcγ receptor prepared above using Biacore T100 (GE Healthcare Japan Corp.), Biacore T200 (GE Healthcare Japan Corp.), Biacore A100, or Biacore 4000. The running buffer used was HBS-EP+ (GE Healthcare Japan Corp.). The assay temperature was set to 25° C. The sensor chips used were chips prepared by immobilizing Protein L (ACTIGEN or BioVision) onto Series S Sensor Chip CM5 (GE Healthcare Japan Corp.) or Series S Sensor Chip CM4 (GE Healthcare Japan Corp.) by the amine coupling method.
(§3) In order to calculate the KD value of each altered antibody for FcγR, kinetic analysis was conducted according to the following method: first, the antibody of interest was captured onto any of these chips and allowed to interact with mFcγR diluted with a running buffer. For the obtained sensorgram, the assay results were globally fit into the 1:1 Langmuir binding model using Biacore Evaluation Software to calculate an association rate constant ka (L/mol/s) and a dissociation rate constant kd (1/s). From these values, the dissociation constant KD (mol/L) was calculated.

| Relative mFcγRII-binding activity (MB110 = 1) | relative mFcγRII-binding activity (mIgG1 = 1) | Binder |
| --- | --- | --- |
| 1.11 fold | 13.7 fold | B1 |
| 4.51 fold | 55.4 fold | B2 |
| 0.58 fold | 7.1 fold | B3 |
| 3.16 fold | 38.8 fold | B4 |
| 0.28 fold | 3.5 fold | B5 |
| 2.14 fold | 26.3 fold | B6 |
| 1.43 fold | 17.6 fold | B7 |
| 0.92 fold | 11.3 fold | B8 |
| 0.49 fold | 6 fold | B9 |
| 0.75 fold | 9.2 fold | B10 |
| 0.61 fold | 7.4 fold | B11 |
| 0.33 fold | 4 fold | B12 |
| 0.48 fold | 5.9 fold | B13 |
| 0.09 fold | 1.1 fold | B14 |
| 0.13 fold | 1.7 fold | B15 |
| 0.26 fold | 3.2 fold | B16 |
| 3.27 fold | 40.1 fold | B17 |
| 5.36 fold | 65.8 fold | B18 |
| 2.27 fold | 27.9 fold | B19 |
| 3.29 fold | 40.5 fold | B20 |
| 0.38 fold | 4.7 fold | B21 |
| 4.07 fold | 50 fold | B22 |

Target: T2, mouse FcγRIII
Assay: SPR Biacore T200, KD ratio
Source text: as §1, §2, §3

| Relative mFcγRIII-binding activity (MB110 = 1) | relative mFcγRIII-binding activity (mIgG1 = 1) | Binder |
| --- | --- | --- |
| 0.5 fold | 2 fold | B1 |
| 0.87 fold | 3.5 fold | B2 |
| 0.27 fold | 1.1 fold | B3 |
| 0.96 fold | 3.8 fold | B4 |
| 0.05 fold | 0.2 fold | B5 |
| 0.67 fold | 2.7 fold | B6 |
| 0.52 fold | 2.1 fold | B7 |
| 0.55 fold | 2.2 fold | B8 |
| 0.12 fold | 0.5 fold | B9 |
| 0.31 fold | 1.3 fold | B10 |
| 0.31 fold | 1.2 fold | B11 |
| 0.06 fold | 0.2 fold | B12 |
| 0.2 fold | 0.8 fold | B13 |
| 0.03 fold | 0.1 fold | B14 |
| 0.03 fold | 0.1 fold | B15 |
| 0.11 fold | 0.4 fold | B16 |
| 0.99 fold | 4 fold | B17 |
| 1.05 fold | 4.2 fold | B18 |
| 0.96 fold | 3.9 fold | B19 |
| 0.96 fold | 3.9 fold | B20 |
| 0.15 fold | 0.6 fold | B21 |
| 0.89 fold | 3.6 fold | B22 |

Each binder was assayed against T3, mouse FcγRII extracellular domain, … (assay: SPR (Biacore T200); KD of H237-mIgG1/MRAL-k0 / KD of variant).

| relative mFcγRII-binding activity (mIgG1 = 1) | Binder |
| --- | --- |
| 0.48 fold | B23 |
| 0.05 fold | B24 |
| 6.55 fold | B25 |

Target: T4, mouse FcγRIII extracellular domain, …
Assay: as above

| relative mFcγRIII-binding activity (mIgG1 = 1) | Binder |
| --- | --- |
| 0.07 fold | B23 |
| 0.02 fold | B24 |
| 1.35 fold | B25 |
